Laboratory results taken from the supplement of paper PMC11246515.
± gives the standard deviation of the averaged measurements.

Experiment: total protein half-life in vivo (active degradation + dilution); higher = more stable protein
[1] = E. coli NCM3722 delta-clpP delta-lon delta-hslV, growth: N-lim chemostat, doubling time 6 h
[2] = E. coli NCM3722 delta-clpP, growth: N-lim chemostat, doubling time 6 h
[3] = E. coli NCM3722 delta-hslV, growth: N-lim chemostat, doubling time 6 h
[4] = E. coli NCM3722 delta-lon, growth: N-lim chemostat, doubling time 6 h
[5] = E. coli NCM3722 delta-smpB, growth: N-lim chemostat, doubling time 6 h
[6] = wild type E. coli NCM3722, growth: C-lim chemostat, doubling time 3 h
[7] = wild type E. coli NCM3722, growth: C-lim chemostat, doubling time 12 h
[8] = wild type E. coli NCM3722, growth: N-lim chemostat, doubling time 6 h
[9] = wild type E. coli NCM3722, growth: N-lim chemostat, doubling time 12 h
[10] = wild type E. coli NCM3722, growth: P-lim chemostat, doubling time 6 h
[11] = wild type E. coli NCM3722, growth: P-lim chemostat, doubling time 12 h
[12] = wild type E. coli NCM3722, growth: C-lim chemostat, doubling time 6 h

| Sequence | total protein half-life in vivo [1] [h] | total protein half-life in vivo [2] [h] | total protein half-life in vivo [3] [h] | total protein half-life in vivo [4] [h] | total protein half-life in vivo [5] [h] | total protein half-life in vivo [6] [h] | total protein half-life in vivo [7] [h] | total protein half-life in vivo [8] [h] | total protein half-life in vivo [9] [h] | total protein half-life in vivo [10] [h] | total protein half-life in vivo [11] [h] | total protein half-life in vivo [12] [h] |
| --- | --- | --- | --- | --- | --- | --- | --- | --- | --- | --- | --- | --- |
| MVDQVKVVADDQAPAEQSLRRNLTNRHIQLIAIGGAIGTGLFMGSGKTISLAGPSIIFVYMIIGFMLFFVMRAMGELLLSNLEYKSFSDFASDLLGPWAGYFTGWTYWFCWVVTGMADVVAITAYAQFWFPDLSDWVASLAVIVLLLTLNLATVKMFGEMEFWFAMIKIVAIVSLIVVGLVMVAMHFQSPTGVEASFAHLWNDGGWFPKGLSGFFAGFQIAVFAFVGIELVGTTAAETKDPEKSLPRAINSIPIRIIMFYVFALIVIMSVTPWSSVVPEKSPFVELFVLVGLPAAASVINFVVLTSAASSANSGVFSTSRMLFGLAQEGVAPKAFAKLSKRAVPAKGLTFSCICLLGGVVMLYVNPSVIGAFTMITTVSAILFMFVWTIILCSYLVYRKQRPHLHEKSIYKMPLGKLMCWVCMAFFVFVVVLLTLEDDTRQALLVTPLWFIALGLGWLFIGKKRAAELRK [P0AAE0] | 4.28 ± 0.25 | 3.4 ± 0.0052 | 3.26 ± 0.38 | 2.95 ± 0.22 | 3.33 ± 0.25 | 3.28 ± 0.5 | 8.36 ± 0.32 | 3.26 ± 0.58 | 5 ± 0.22 | 4.74 ± 0.37 | 6.57 ± 0.66 |  |
| MVDSKKRPGKDLDRIDRNILNELQKDGRISNVELSKRVGLSPTPCLERVRRLERQGFIQGYTALLNPHYLDASLLVFVEITLNRGAPDVFEQFNTAVQKLEEIQECHLVSGDFDYLLKTRVPDMSAYRKLLGETLLRLPGVNDTRTYVVMEEVKQSNRLVIKTR [P0ACJ0] | 6.5 ± 0.13 | 6.63 ± 0.76 | 6.65 ± 0.079 | 7.54 ± 0.57 | 6.08 ± 0.29 | 3.27 ± 0.28 | 10.8 ± 0.19 | 5.82 ± 0.65 | 12 ± 0.67 | 5.73 ± 0.45 | 14 ± 0.69 | 6.23 ± 0.33 |
| MVDTTQTTTEKKLTQSDIRGVFLRSNLFQGSWNFERMQALGFCFSMVPAIRRLYPENNEARKQAIRRHLEFFNTQPFVAAPILGVTLALEEQRANGAEIDDGAINGIKVGLMGPLAGVGDPIFWGTVRPVFAALGAGIAMSGSLLGPLLFFILFNLVRLATRYYGVAYGYSKGIDIVKDMGGGFLQKLTEGASILGLFVMGALVNKWTHVNIPLVVSRITDQTGKEHVTTVQTILDQLMPGLVPLLLTFACMWLLRKKVNPLWIIVGFFVIGIAGYACGLLGL | 6.27 ± 0.37 | 6.2 ± 0.14 | 5.93 ± 0.077 | 6.13 ± 0.11 | 6.28 ± 0.28 | 3.168 ± 0.014 | 13.8 ± 2.9 | 6.51 ± 0.75 | 12.8 ± 1.1 | 6.24 ± 0.064 | 13.56 ± 0.072 | 6.21 ± 0.26 |
| MVERTAVFPAGRHSLYAEHRYSAAIRSGDLLFVSGQVGSREDGTPEPDFQQQVRLAFDNLHATLAAAGCTFDDIIDVTSFHTDPENQFEDIMTVKNEIFSAPPYPNWTAVGVTWLAGFDFEIKVIARIPEQ | 5.72 ± 0.59 | 4.29 ± 0.47 | 5.62 ± 1.5 | 5.45 ± 0.62 | 4.61 ± 0.57 | 3.61 | 11.5 ± 1.1 | 5.02 ± 0.087 | 8.83 ± 0.12 | 5.604 ± 0.05 | 12.1 ± 0.51 | 6.32 |
| MVIGPFINASAVLLGGVLGALLSQRLPERIRVSMTSIFGLASLGIGILLVVKCANLPAMVLATLLGALIGEICLLEKGVNTAVAKAQNLFRHSRKKPAHESFIQNYVAIIVLFCASGTGIFGAMNEGMTGDPSILIAKSFLDFFTAMIFACSLGIAVSVISIPLLIIQLTLAWAAALILPLTTPSMMADFSAVGGLLLLATGLRICGIKMFPVVNMLPALLLAMPLSAAWTAWFA |  | 6.45 |  |  |  |  |  |  | 10.8 |  |  |  |
| MVIKAQSPAGFAEEYIIESIWNNRFPPGTILPAERELSELIGVTRTTLREVLQRLARDGWLTIQHGKPTKVNNFWETSGLNILETLARLDHESVPQLIDNLLSVRTNISTIFIRTAFRQHPDKAQEVLATANEVADHADAFAELDYNIFRGLAFASGNPIYGLILNGMKGLYTRIGRHYFANPEARSLALGFYHKLSALCSEGAHDQVYETVRRYGHESGEIWHRMQKNLPGDLAIQGR [P0A8V6] | 5.22 ± 0.34 | 5.72 ± 0.28 | 5.12 ± 0.56 | 6.05 ± 0.6 | 5.01 ± 0.18 | 2.88 ± 0.091 | 9.92 ± 0.94 | 5.93 ± 0.23 | 10.3 ± 0.15 | 4.58 ± 0.83 | 8.62 ± 1.3 | 6.27 ± 0.67 |
| MVKKSEFERGDIVLVGFDPASGHEQQGAGRPALVLSVQAFNQLGMTLVAPITQGGNFARYAGFSVPLHCEEGDVHGVVLVNQVRMMDLHARLAKRIGLAADEVVEEALLRLQAVVE |  |  |  |  |  |  |  |  | 6.76 |  | 10.7 | 6.08 |
| MVKSTPCITIDFMNMSQLTERTFTPSESLSSLSLFLSLARGQCRPGKFWHRRSFRQKFLLRSLIMPRLSVEWMNELSHWPNLNVLLTRQPRLPVRLHRPYLAANLSRKQLLEALRYHYALLRECMSAEEFSLYLNTPGLQLAKLEGKNGEQFTLELTMMISMDKEGDSTILFRNSEGIPLAEITFTLCEYQGKRTMFIGGLQGAKWEIPHQEIQNATKACHGLFPKRLVMEAACLFAQRLQVEQIIAVSNETHIYRSLRYRDKEGKIHADYNAFWESVGGVCDAERHYRLPAQIARKEIAEIASKKRAEYRRRYEMLDAIQPQMATMFRG | 3.06 ± 0.041 |  | 0.723 | 1.38 ± 0.35 | 0.646 ± 0.039 | 0.953 ± 0.067 | 1.31 | 1.16 ± 0.38 | 1.2 ± 0.25 |  | 2.33 | 0.7307 ± 0.0013 |
